Assay [1] concerns the target T1, 人CLDN18.2 (claudin-18 isoform 2 [Homo sapiens], NP_001002026.1) (human). The assay can be described thus: cell-based or functional assay.
In assay [2] the target is T1, 人CLDN18.2 (claudin-18 isoform 2 [Homo …). The assay can be described thus: flow cytometry on HEK293-hCLDN18.2 cells, MFI against concentration.
The target in assay [3] is T2, 人CLDN18.1 (claudin-18 isoform 1 precursor [Homo sapiens], NP_057453.1) (human, UniProt P56856 1-261).
T2 construct: Full-length gene in pEGFP-N2, stably expressed on HEK293 cells (HEK293-hCLDN18.1); also called hCLDN18.1; HEK293-hCLDN18.1
T2 sequence: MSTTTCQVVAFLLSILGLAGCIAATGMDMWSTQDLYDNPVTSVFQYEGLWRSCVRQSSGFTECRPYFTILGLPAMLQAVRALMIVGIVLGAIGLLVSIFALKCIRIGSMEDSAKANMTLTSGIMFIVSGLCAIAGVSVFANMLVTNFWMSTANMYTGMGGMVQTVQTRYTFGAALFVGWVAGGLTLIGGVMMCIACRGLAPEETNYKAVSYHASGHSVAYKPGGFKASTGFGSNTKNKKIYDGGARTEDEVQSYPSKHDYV
Kind of assay: flow cytometry on HEK293-hCLDN18.1 cells. In general terms: A flow cytometer gives signals particle by particle.

The target in assay [4] is T1, 人CLDN18.2 (claudin-18 isoform 2 [Homo …). Kind of assay: cell ELISA on fixed HEK293-hCLDN18.2 cells. A general note: In an ELISA, binding on a coated surface is turned into a signal by an enzyme label.
For assay [5] the target is unchanged. Kind of assay: cell-based or functional assay. This is another data set of the same source.
Assay [6] has the same target. Kind of assay: cell ELISA on fixed NUGC4 cells (endogenous human CLDN18.2).

Data on 3 molecules can be found in patent CN116102649A (SHANGHAI INST OF BIOLOGICAL PRODUCTS CO LTD, dated 2023).

Broadly, the EC50 is the concentration at which the effect is half-maximal.

B1: 嵌合抗体ch782 (antibody, V domains shown)
VH: DVQLQESGPDLVKPSQSLSLTCTVTGYSITSGYSWHWIRQFPGNKLEWMGYIHYSDNTNYSPSLKSRISITRDTSKNQFFLQLNSVTTEDTATYYCARIYYGNSFVYWGQGTLVTVSA
VL: DIVMTQSPSSLTVTAGEKVTMSCKSSQSLLNSGNQKNYLTWYQQKPGQPPKLLIYWASTRESGVPDRFTGSGSGTDFTLTINSVQAEDLAVYYCQNDYFYPYTFGGGTKLEIK
B1: in assay [1], the “ADCC reporter gene assay (Jurkat/NFAT-luc+FcγRIIIa) on HEK293-hCLDN18.2 cells, EC50” value was found to be 0.0476 µg/mL. Also, the EC50 in assay [2] is 0.81 µg/mL; in assay [4], 0.0173 µg/mL; in assay [6] it was 0.57 µg/mL. Also, the binding result in assay [3] was “no binding”. In addition, in assay [4], the “相对结合活性 (relative to Ref.ch175)” value is 180%. Also, in assay [5], the “CDC on HEK293-hCLDN18.2 cells (rabbit complement, CCK-8), EC50” value turned out to be 0.0309 µg/mL.

B2: 嵌合抗体ch624 (antibody, V domains shown)
VH: QVQLQQPGAELVRPGASVKLSCKASGYSFTSYWMNWVKQRPGQGLEWIGMIHPSDSETRLNQKFKDKATLTVDKSSSTAYMQLSSPTSEDSAVYYCARTSYGNSFAYWGQGTLVTVSA
VL: DIVMTQSPSSLTVTAGEKVTMSCKSSQSLLNSGNQKNYLTWYQQKPGQPPKLLIYWASTRESGVPDRFTGSGSGTDFTLTISSVQAEDLAVYYCQNDYSYPFTFGSGTKLEIK
For the molecule B2, in assay [3], the binding result is “no binding”. In assay [4], the EC50 was 0.0392 µg/mL and the “相对结合活性 (relative to Ref.ch175)” value is 79.3%.

B3: 人源化抗体hu782-HV (H1.2-V101A L2组合) (antibody, human IgG1, V domains shown)
VH: QVQLQESGPGLVKPSETLSLTCTVSGYSITSGYSWHWIRQPPGKGLEWMGYIHYSDNTNYAPSLKSRITISRDTSKNQFSLKLSSVTAADTAVYYCARIYYGNSFAYWGQGTLVTVSS
VL: DIVMTQSPDSLAVSLGERATINCKSSQSLLNSGNQKNYLTWYQQKPGQPPLLIYWASTRESGVPDRFSGSGSGTDFTLTISSLQAEDVAVYYCQNDYFYPYTFGGGTKLEIK
For the molecule B3, in assay [5], the “ADCC reporter gene assay on HEK293-hCLDN18.2 cells, EC50” value came out at 0.0709 µg/mL and the “CDC on HEK293-hCLDN18.2 cells (rabbit complement, CCK-8), EC50” value turned out to be 0.0476 µg/mL.
